From paper PMC3355120, “LGR6 Is a High Affinity Receptor of R-Spondins and Potentially Functions as a Tumor Suppressor” (PLoS ONE, 2012)

B1: purified recombinant R-spondin 4 (ligand, UniProt Q2I0M5 20-234, looked up)
chain: LNRRKKQVGTGLGGNCTGCIICSEENGCSTCQQRLFLFIRREGIRQYGKCLHDCPPGYFGIRGQEVNRCKKCGATCESCFSQDFCIRCKRQFYLYKGKCLPTCPPGTLAHQNTRECQGECELGPWGGWSPCTHNGKTCGSAWGLESRVREAGRAGHEEAATCQVLSESRKCPIQRPCPGERSPGQKKGRKDRRPRKDRKLDRRLDVRPRQPGLQP
notes: R-spondin 4 (RSPO4); also called RSPO4; source: purified recombinant
B2: purified recombinant R-spondin 2 (ligand, UniProt Q6UXX9 22-243, looked up)
chain: QGNRWRRSKRASYVSNPICKGCLSCSKDNGCSRCQQKLFFFLRREGMRQYGECLHSCPSGYYGHRAPDMNRCARCRIENCDSCFSKDFCTKCKVGFYLHRGRCFDECPDGFAPLEETMECVEGCEVGHWSEWGTCSRNNRTCGFKWGLETRTRQIVKKPVKDTILCPTIAESRRCKMTMRHCPGGKRTPKAKEKRNKKKKRKLIERAQEQHSVFLATDRANQ
notes: R-spondin 2 (RSPO2); also called RSPO2; source: purified recombinant
B3: purified recombinant R-spondin 3 (ligand, UniProt Q9BXY4 22-272, looked up)
chain: QNASRGRRQRRMHPNVSQGCQGGCATCSDYNGCLSCKPRLFFALERIGMKQIGVCLSSCPSGYYGTRYPDINKCTKCKADCDTCFNKNFCTKCKSGFYLHLGKCLDNCPEGLEANNHTMECVSIVHCEVSEWNPWSPCTKKGKTCGFKRGTETRVREIIQHPSAKGNLCPPTNETRKCTVQRKKCQKGERGKKGRERKRKKPNKGESKEAIPDSKSLESSKEIPEQRENKQQQKKRKVQDKQKSVSVSTVH
notes: R-spondin 3 (RSPO3); also called RSPO3; source: purified recombinant
B4: purified recombinant R-spondin 1 (ligand, UniProt Q2MKA7 21-263, looked up)
chain: SRGIKGKRQRRISAEGSQACAKGCELCSEVNGCLKCSPKLFILLERNDIRQVGVCLPSCPPGYFDARNPDMNKCIKCKIEHCEACFSHNFCTKCKEGLYLHKGRCYPACPEGSSAANGTMECSSPAQCEMSEWSPWGPCSKKQQLCGFRRGSEERTRRVLHAPVGDHAACSDTKETRRCTVRRVPCPEGQKRRKGGQGRRENANRNLARKESKEAGAGSRRRKGQQQQQQQGTVGPLTSAGPA
notes: R-spondin 1 (RSPO1); also called RSPO1; source: purified recombinant

How the values were obtained:
[1] = biological target: T1, human LGR6 (leucine-rich repeat containing, G protein-coupled receptor 6) with a Flag-tag at the N-terminus, … (human, UniProt Q9HBX8-3 25-967); test: whole-cell-based competition binding assay; HEK293 cells stably expressing Flag-LGR6 incubated with mRSPO1-Fc plus serial dilutions of purified recombinant RSPO1–4; maximum specific binding is the difference with and without mRSPO1-Fc; settings: one partner purified
T1 construct: human LGR6, predicted mature form AA25-967 of NP_001017403; The CD8 signal peptide replaces LGR6's own; also called Flag-LGR6; LGR6 WT; source: HEK293T cells, transiently transfected (reporter assays); not shown: Flag, N-terminal, kept
T1 sequence (looked up): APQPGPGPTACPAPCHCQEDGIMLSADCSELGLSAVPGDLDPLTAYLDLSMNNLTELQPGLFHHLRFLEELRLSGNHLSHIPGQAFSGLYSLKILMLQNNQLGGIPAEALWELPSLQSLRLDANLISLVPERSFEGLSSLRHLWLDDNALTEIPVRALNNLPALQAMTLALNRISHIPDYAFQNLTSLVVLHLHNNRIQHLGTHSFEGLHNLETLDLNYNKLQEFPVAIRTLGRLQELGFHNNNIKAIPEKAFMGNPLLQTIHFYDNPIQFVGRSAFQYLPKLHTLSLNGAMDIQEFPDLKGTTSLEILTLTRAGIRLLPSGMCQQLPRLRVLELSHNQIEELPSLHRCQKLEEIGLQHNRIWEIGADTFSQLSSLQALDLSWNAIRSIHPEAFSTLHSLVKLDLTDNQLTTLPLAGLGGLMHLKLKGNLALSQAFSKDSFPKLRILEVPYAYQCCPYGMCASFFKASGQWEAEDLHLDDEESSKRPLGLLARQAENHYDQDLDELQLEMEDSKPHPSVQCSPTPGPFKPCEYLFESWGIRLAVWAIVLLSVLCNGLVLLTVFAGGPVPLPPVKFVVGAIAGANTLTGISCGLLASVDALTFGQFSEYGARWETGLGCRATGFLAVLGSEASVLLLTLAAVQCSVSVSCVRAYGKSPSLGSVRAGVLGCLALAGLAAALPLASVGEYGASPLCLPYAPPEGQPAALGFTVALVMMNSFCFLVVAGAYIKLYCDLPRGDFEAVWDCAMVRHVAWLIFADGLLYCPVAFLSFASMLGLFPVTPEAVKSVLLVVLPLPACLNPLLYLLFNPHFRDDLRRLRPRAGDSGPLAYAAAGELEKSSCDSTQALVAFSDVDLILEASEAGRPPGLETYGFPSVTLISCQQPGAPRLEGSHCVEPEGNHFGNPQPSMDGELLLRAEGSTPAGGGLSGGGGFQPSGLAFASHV

[2] = biological target: T1, human LGR6 (leucine-rich repeat …); test: cell-based or functional assay

Binder	IC50 [1]	Super TOPflash β-catenin reporter in HEK293T cells transfected with LGR6 or vector, serial dilutions of RSPO1 with Wnt3a CM: gain in potency of RSPO1 [2]
B1	7 nM	
B2	0.5 nM	
B3	1.7 nM	
B4	3.3 nM	~30 fold
